Experimental findings from patent US20210292393A1 (published 2021) are described below.

The target of test [1] is SARS-CoV spike protein (full length spike, trimeric, conjugated to beads) (SARS-CoV, UniProt P59594 14-1190).
In test [2] the target is SARS-CoV-2 full length spike protein (wild-type), conjugated to optically encoded beads (SARS-CoV-2, UniProt P0DTC2 14-1208).

Where a chain is given by its changes, count along the chain named.

B1: antibody 395 (antibody, V domains shown)
VH: QVQLVQSGSELKKPGASVKLSCQASGYTFSNHAMNWVRQAPGQGLEWMGWINTNTGNPTYAQGFTGRFVFSLDTSVGTAYLHISSLKAEDTAFYYCARASARPGVATNLDFWGQGTLVVVSS
VL: DIQMTQSPSSLSASVGDRVTITCRTSQNIDNYLNWYQQKPGKAPNLLIYAASRLHSGVPSRFSGSGSGTDFTLIISSLQPEDLATYYCQQSYSNPLTFGPGTKVDIR
As to B1, the “median fluorescence fold over isotype control” value in test [1] turned out to be 1.16 fold over isotype control.

B2: antibody 536 (antibody, V domains shown)
VH: QVQLVESGGGVVQPGRSLRLSCAASGFTFSSYVMHWVRQAPGKGLEWVALISYDGSNKYYADSVKGRFTISRDNSKNTLYLQMNSLRAEDTAVYYCARGGHIRVGRYFDWLISYFDYWGQGTLVTVSS
VL: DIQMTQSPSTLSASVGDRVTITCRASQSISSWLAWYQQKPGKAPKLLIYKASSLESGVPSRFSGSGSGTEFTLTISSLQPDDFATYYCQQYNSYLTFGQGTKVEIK
As to B2, in test [2], the “median fluorescence fold over isotype” value was found to be 643 fold over isotype.

B3: antibody 404 (antibody, V domains shown)
VH: QVQLVESGGGVVQPGRSLRLSCAASGFTFSSYGMHWVRQAPGKGLEWVAVIWYDGSNKYYADSVKGRFTISRDNSKNTLYLQMNSLRAEDTAVYYCARLAVDISFDGSDGMDVWGQGTTVTVSS
VL: SYELTQPPSVSVSPGQTARITCSGDALPKKYAYWYQQKSGQAPVLVIYEDSKRPSGIPERFSGSSSGTMATLTISGAQVEDEADYYCYSTDSSGKGVFGTGTKVTVL
For the molecule B3, the “median fluorescence fold over isotype control” value in test [1] is 1.04 fold over isotype control.

B4: antibody 407 (antibody, V domains shown)
VH: QVQLVESGGGVVQPGRSLRLSCAASGFTFSSYGMHWVRQAPGKGLEWVAVISYDGSNKYYADSVKGRFTISRDNSKNTLYLQMNSLRAEDTAVYYCAKCGWDYDFWVGQGYGMDVWGQGTTVTVSS
VL: not shown
For the molecule B4, in test [1], the “median fluorescence fold over isotype control” value is 1.07 fold over isotype control.

B5: antibody 412 (antibody, V domains shown)
VH: QVQLVQSGAEVKKPGASVKVSCKASGYTFTSYGISWVRQAPGQGLEWMGWISAYNGNTNYAQKLQGRVTMTTDTSTSTAYMELRSLRSDDTAVYYCARVTVEAIFGVVILPLKNWFDPWGQGTLVTVSS
VL: QSVLTQPPSVSGAPGQRVTISCTGSSSNIGAGYDVHWYQQLPGTAPKLLIYGNSNRPSGVPDRFSGSKSGTSASLAITGLQAEDEADYYCQSYDSSLTLYVFGTGTKVTVL
In the case of B5, in test [1], the “median fluorescence fold over isotype control” value was 1.09 fold over isotype control.

B6: antibody 421 (antibody, V domains shown)
VH: QVQLVESGGGVVQPGRSLRLSCAASGFTFSTYAMHWVRQAPGKGLEWVAVISYDGSNKYYADSVKGRFTISRDNSKNTLYLQMNSLRAEDTAVYYCARGYGSGSYYPLYLYWGQGTLVTVSS
VL: not shown
For B6, the “median fluorescence fold over isotype control” value in test [1] stood at 1.19 fold over isotype control.

B7: antibody 537 (antibody, V domains shown)
VH: QVQLQQWGAGLLKPSETLSLTCAVYGGSFSGYYWSWIRQPPGKGLEWIGEINHSGSTNYNPSLKSRVTISVDTSKNQFSLKLSSVTAADTAVYYCARGLYYDMGGGFDYWGQGTLVTVSS
VL: not shown
Turning to B7, the “median fluorescence fold over isotype” value in test [2] came to 787 fold over isotype.

B8: antibody 385 (antibody, V domains shown)
VH: QVQLVESGGGVVQPGRSLRLSCAASGFTFSSYAIHWVRQAPGKGLEWVAVISYDGSNKYYADSVKGRFTISRDNSKNTLYLQMNSLRAEDTAVYYCARPRSGSYWGAFDIWGQGTMVTVSS
VL: QSVLTQPPSVSGAPGQRVTISCTGSSSNIGARYDVHWYQQLPGTAPKLLIYGNSNRPSGVPDRFSGSKSGTSASLAITGLQAEDEADYYCQSYDSSLRGVFGGGTKLTVL
For B8, the “median fluorescence fold over isotype control” value in test [1] amounted to 59.6 fold over isotype control.

B9: antibody 548 (antibody, V domains shown)
VH: B8 VH with I34M, S85N, R98K, P99S, R100G, W105L, G106S
VL: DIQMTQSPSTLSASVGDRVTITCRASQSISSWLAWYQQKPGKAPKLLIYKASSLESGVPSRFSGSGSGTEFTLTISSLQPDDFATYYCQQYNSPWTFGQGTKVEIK
With B9, the “median fluorescence fold over isotype” value in test [2] turned out to be 642 fold over isotype.

B10: antibody 409 (antibody, V domains shown)
VH: QVTLRESGPALVKPTQTLTLTCTFSGFSLSTSGMCVSWIRQPPGKALEWLALIDWDDDKYYSTSLKTRLTISKDTSKNQVVLTMTNMDPVDTATYYCARTTYYYVSGRRAEFDPWGQGTLVTVSS
VL: NFMLTQPHSVSESPGKTVTISCTGSSGSIASNYVQWYQQRPGSAPTTVIYEDNQRPSGVPDRFSGSIDSSSNSASLTISGLKTEDEADYYCQSYDSSNQGVFGGGTKLTVL
For B10, the “median fluorescence fold over isotype control” value in test [1] amounted to 1.03 fold over isotype control.

B11: antibody 422 (antibody, V domains shown)
VH: QVQLVQSGSELKKPGASVKVSCKASGYTFTSYAMNWVRQAPGQGLEWMGWINTNTGNPTYAQGFTGRFVFSLDTSVSTTYLQISSLKAEDTAVYYCARVIGVVTYYYYGMDVWGQGTTVTVSS
VL: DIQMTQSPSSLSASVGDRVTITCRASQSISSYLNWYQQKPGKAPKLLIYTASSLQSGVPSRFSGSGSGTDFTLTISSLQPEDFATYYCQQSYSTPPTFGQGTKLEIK
In the case of B11, in test [1], the “median fluorescence fold over isotype control” value is 1.19 fold over isotype control.

B12: antibody 523 (antibody, V domains shown)
VH: EVQLVESGGVSVQPGGSLRLSCAASGFSFNTYDMHWVRQGTGKGLEWVSGIGTAGDTYYSDSVKGRCTISRDNAKNSLHLLVKSVRAADTAVYYCARGVGGIIDYWGQGTLVTVSS
VL: NFVLSQPHSVSESPGKTVTISCTGNSGSIATKYVQWFQQRPGSAPTTVIYEDNQRPSGVPDRFSGSSDSSSNSASLTISGLKTEDEAHYYCQSYHNRRWVFGGGTKLTVL
Turning to B12, the “median fluorescence fold over isotype” value in test [2] turned out to be 30.8 fold over isotype.

B13: antibody 533 (antibody, V domains shown)
VH: GVQLVESGGVVVQPGGSLRLSCAASGFSFDDYTMHWVRQAPGKGLEWVSLVSWDGGTTYYTDSVKGRFTISRDNSKNSLYLQMNSLRTEDTALYFCAKDSGRIVPAATFDYWGQGTLVTVSS
VL: DIQMTQSSSSLSASVGDRVTITCRASQDISNYLAWFQQKPGKAPKSLIYAASSLQSGVPSKFSGSGSGTDFTLTISSLQPEDFATYYCQQYYTYPLTFGGGTKVEIK
In the case of B13, the “median fluorescence fold over isotype” value in test [2] was found to be 23.4 fold over isotype.

B14: antibody 522 (antibody, V domains shown)
VH: EVQLVESGGGLVQPGGSLRLSCAASGFNFSSYSMNWVRQAPGKGLEWVSYISSSSSTIYYADSVKGRFTISRDNAKNSLYLQMNSLRDEDTAVYYCARGPEWDIVVVQAENWFDPWGQGTLVTVSS
VL: SYELTQPPSVSVSPGQTARITCSGDALPKQYVYWYQQKPGQAPVLVIYKDSERPSGIPERFSGSSSGTTVTLTISGVQAEDEADYYCQSADSSGTYRGVFGGGTKLTVL
In the case of B14, the “median fluorescence fold over isotype” value in test [2] came out at 433 fold over isotype.

B15: antibody 517 (antibody, V domains shown)
VH: QVQLVESGGGVVQPGRSLRLSCAASGFNLSNYAMHWVRQASGKGLEWVSLISYDGSIKYYTDSVKGRFTVSGDNSKNTLFLQMNSLRADDSALYYCVRGGVSGPNSFDMWGQGTTVTVSS
VL: DVVMTQSPLSLPVTLGQPASISCRSSQSLVYSDGNTYVNWFQQRPGQSPRRLIYQVSIRASGVPDRFSGSGSGTDFALKISRVEAEDVGVYYCMQGTHWPVTFGQGTKVEIK
In the case of B15, the “median fluorescence fold over isotype” value in test [2] came to 434 fold over isotype.

B16: antibody 547 (antibody, V domains shown)
VH: QVHLVESGGGVVQPGRSLRLSCAASGFALSSYAMHWVRQPPGKGLEWVALISYDGSVKKYADSVKGRITVSGDNSRNTLHLQINSLRADDTAVYYCVRGGVSGPNSFDLWGHGTMVTVSS
VL: B15 VL with M4L, V30E, D33V, Q55K, I58N, A60D, A77T, K79Q, E86D, V90I
In the case of B16, the “median fluorescence fold over isotype” value in test [2] was 606 fold over isotype.

B17: antibody 545 (antibody, V domains shown)
VH: QVQLVQSGSELKKPGASVKVSCKASGYTFTSYAMNWVRQAPGQGLEWMGWINTNTGNPTYAQGFTGRFVFSLDTSVSTAYLQISVLKAEDTGVYYCARDHELPNSSSWFGHFEYWGQGTLVTVSS
VL: SYELTQPPSVSVSPGQTARITCSGDALPKQYAYWYQQKAGQAPVLVIYKDSERRSGIPERFSGSSSGTTVTLTISGVQAEDEADYYCQSADSSGTSVVFGGGTKLTVL
For the molecule B17, in test [2], the “median fluorescence fold over isotype” value was found to be 939 fold over isotype.

B18: antibody 546 (antibody, V domains shown)
VH: QVQLVESGGGVVQPGRSLRLSCAASGFTFSSYGMHWVRQAPGKGLEWVAVIWYDGSNKYYADSVKGRFTISRDNSKNTLYLQMNSLRAEDTAVYYCARNCGGDCVAGDGFDYWGQGTLVTVSS
VL: DIQMTQSPSSLSASVGDRVTITCRASQSISSYLNWYQQKPGKAPNLLIYAASSLQSGVPSRFSGSGSGTDFTLTISSLQPEDFATYYCQQSYSALTWTFGQGTKVEIK
As for B18, the “median fluorescence fold over isotype” value in test [2] turned out to be 1160 fold over isotype.

B19: antibody 396 (antibody, V domains shown)
VH: QVQLQQWGAGLLKPSETLSLTCAVYGGSFSGYYWSWIRQPPGKGLEWIGEIIHSGSTNYNPSLKSRVTISVDTSKNQFSLKLSSVTAADTAVYYSARRTGLLWFREGSYYFDYWGQGTLVTVSS
VL: DIQMTQSPSSLSASVGDRVTITCRASQGIRNDLGWYQQKPGKAPKRLIYAASSLQSGVPSRFSGSGSGTEFTLTISSLQPEDFATYYCLQHNSYPLTFGGGTKVEIK
As for B19, the “median fluorescence fold over isotype control” value in test [1] was found to be 1.36 fold over isotype control.

B20: antibody 543 (antibody, V domains shown)
VH: EVQLVESGGGLVQPGRSLRLSCAASGFTFHDYAMHWVRQAPGKGLEWVSGISWNSGSIGYADSVKGRFTISRDNAKNSLYLQMNSLRAEDTALYYCAKDTFGSSSWYRGDSYYYYGMDVWGQGTTVTVSS
VL: QSALTQPASVSGSPGQSITISCTGTSSDVGGYNYVSWYQQHPGKAPKLMIYEVSNRPSGVSNRFSGSKSGNTASLTISGLQAEDEADYYCSSYTSSSTQRYVVFGGGTKLTVL
With B20, the “median fluorescence fold over isotype” value in test [2] stood at 802 fold over isotype.

B21: antibody 392 (antibody, V domains shown)
VH: QVQLQESGPGLVKPSGTLSLTCAVSGGSISSSNWWSWVRQPPGKGLEWIGEIYHSGSTNYNPSLKSRVTISVDKSKNQFSLKLSSVTAADTAVYYCARGWRATLYGMDVWGQGTTVTVSS
VL: QSALTQPASVSGSPGQSITISCTGTSSDVGSYNLVSWYQQHPGKAPKLMIYEVSKRPSGVSNRFSGSKSGNTASLTISGLQAEDEADYYCCSYAGSSTWVFGGGTKLTVL
On to B21, for which the “median fluorescence fold over isotype control” value in test [1] was found to be 1.08 fold over isotype control.

B22: antibody 527 (antibody, V domains shown)
VH: QLQLQESGPGLVKPSETLSLTCTVSGGSISSSSYYWGWIRQPPGKGLEWIGSIYYSGSTYYNPSLKSRVTISVDTSKNQFSLKLSSVTAADTAMYYCASHVVVIASSYWCFDLWGRGTLVTVSS
VL: B21 VL with S31G, L34Y, E52D, K55N, C91S, A94T, G95S, S96I
As to B22, the “median fluorescence fold over isotype” value in test [2] came to 148 fold over isotype.

B23: antibody 405 (antibody, V domains shown)
VH: not shown
VL: B21 VL with A8R, I18V, S31G, L34Y, E52D, S61P, N62D, S97Y, T98N, W99V
As to B23, the “median fluorescence fold over isotype control” value in test [1] is 80.9 fold over isotype control.
